Tests used:
Assay in all cases: one_hybrid
[1] = tested on: OZ119 (CF877R) (synthetic); conditions: bacterial two-hybrid lacZ, SD 0.35
[2] = tested on: OZ120 (CF877R) (synthetic); conditions: bacterial two-hybrid lacZ, SD 0.01
[3] = tested on: OZ121 (CF877R) (synthetic); conditions: bacterial two-hybrid lacZ, SD 0.19
[4] = tested on: OZ122 (CF877R) (synthetic); conditions: bacterial two-hybrid lacZ, SD 0.59
[5] = tested on: OZ123 (CF877R) (synthetic); conditions: bacterial two-hybrid lacZ, SD 0.63
[6] = tested on: OZ124 (CF877R) (synthetic); conditions: bacterial two-hybrid lacZ, SD 0.20
[7] = tested on: OZ125 (CF877R) (synthetic); conditions: bacterial two-hybrid lacZ, SD 0.85
[8] = tested on: OZ126 (CF877R) (synthetic); conditions: bacterial two-hybrid lacZ, SD 0.28
[9] = tested on: OZ127 (CF877R) (synthetic); conditions: bacterial two-hybrid lacZ, SD 0.02
[10] = tested on: OZ128 (CF877R) (synthetic); conditions: bacterial two-hybrid lacZ, SD 0.07
[11] = tested on: OZ129 (CF877R) (synthetic); conditions: bacterial two-hybrid lacZ, SD 0.07
[12] = tested on: OZ130 (CF877R) (synthetic); conditions: bacterial two-hybrid lacZ, SD 0.22
[13] = tested on: OZ131 (CF877R) (synthetic); conditions: bacterial two-hybrid lacZ, SD 0.12
[14] = tested on: OZ133 (CF877R) (synthetic); conditions: bacterial two-hybrid lacZ, SD 0.05
[15] = tested on: OZ134 (CF877R) (synthetic); conditions: bacterial two-hybrid lacZ, SD 0.19
[16] = tested on: OZ135 (CF877R) (synthetic); conditions: bacterial two-hybrid lacZ, SD 0.07
[17] = tested on: OZ136 (CF877R) (synthetic); conditions: bacterial two-hybrid lacZ, SD 0.06
[18] = tested on: OZ137 (CF877R) (synthetic); conditions: bacterial two-hybrid lacZ, SD 0.04
[19] = tested on: OZ138 (CF877R) (synthetic); conditions: bacterial two-hybrid lacZ, SD 0.41
[20] = tested on: OZ139 (CF877R) (synthetic); conditions: bacterial two-hybrid lacZ, SD 0.03
[21] = tested on: OZ140 (CF877R) (synthetic); conditions: bacterial two-hybrid lacZ, SD 0.48
[22] = tested on: OZ141 (CF877R) (synthetic); conditions: bacterial two-hybrid lacZ, SD 0.08
[23] = tested on: OZ142 (CF877R) (synthetic); conditions: bacterial two-hybrid lacZ, SD 0.16
[24] = tested on: OZ107 (CF877L) (synthetic); conditions: bacterial two-hybrid lacZ, SD 0.58
[25] = tested on: OZ108 (CF877L) (synthetic); conditions: bacterial two-hybrid lacZ, SD 0.51
[26] = tested on: OZ109 (CF877L) (synthetic); conditions: bacterial two-hybrid lacZ, SD 0.20
[27] = tested on: OZ110 (CF877L) (synthetic); conditions: bacterial two-hybrid lacZ, SD 0.15; marked + in table
[28] = tested on: OZ111 (CF877L) (synthetic); conditions: bacterial two-hybrid lacZ, SD 1.90; marked + in table
[29] = tested on: OZ112 (CF877L) (synthetic); conditions: bacterial two-hybrid lacZ, SD 0.55
[30] = tested on: OZ113 (CF877L) (synthetic); conditions: bacterial two-hybrid lacZ, SD 0.20
[31] = tested on: OZ114 (CF877L) (synthetic); conditions: bacterial two-hybrid lacZ, SD 0.18
[32] = tested on: OZ115 (CF877L) (synthetic); conditions: bacterial two-hybrid lacZ, SD 0.12
[33] = tested on: OZ116 (CF877L) (synthetic); conditions: bacterial two-hybrid lacZ, SD 0.38
[34] = tested on: OZ117 (CF877L) (synthetic); conditions: bacterial two-hybrid lacZ, SD 0.33
[35] = tested on: OZ118 (CF877L) (synthetic); conditions: bacterial two-hybrid lacZ, SD 0.08

**Q.** What does the source list for “GAGTGGTTA (double strand) [CF877R half-site]”?
**A.** activity (fold activation) [1]: 2.78; activity (fold activation) [2]: 2.53; activity (fold activation) [3]: 2.91; activity (fold activation) [4]: 4.72; activity (fold activation) [5]: 5.03; activity (fold activation) [6]: 4.41; activity (fold activation) [7]: 4; activity (fold activation) [8]: 2.57; activity (fold activation) [9]: 1.6; activity (fold activation) [10]: 2.12; activity (fold activation) [11]: 2.55; activity (fold activation) [12]: 2.47; activity (fold activation) [13]: 2.08; activity (fold activation) [14]: 3.24; activity (fold activation) [15]: 3.71; activity (fold activation) [16]: 2.25; activity (fold activation) [17]: 2.16; activity (fold activation) [18]: 2.26; activity (fold activation) [19]: 2.52; activity (fold activation) [20]: 2.74; activity (fold activation) [21]: 2.99; activity (fold activation) [22]: 2.87; activity (fold activation) [23]: 2.73

**Q.** With “GTGGAATTA (double strand) [CF877L half-site]” as the sequence, how does the activity (fold activation) [24] read?
**A.** Its activity (fold activation) is 1.92.

**Q.** And the activity (fold activation) [25]?
**A.** The activity (fold activation) was 2.31.

**Q.** And the activity (fold activation) [26]?
**A.** The activity (fold activation) was 2.83.

**Q.** And the activity (fold activation) [27]?
**A.** Its activity (fold activation) is 1.61.

**Q.** What about the activity (fold activation) [28] of the same sequence?
**A.** Its activity (fold activation) is 2.2.

**Q.** And the activity (fold activation) [29]?
**A.** Its activity (fold activation) is 2.52.

**Q.** And the activity (fold activation) [30]?
**A.** Its activity (fold activation) is 1.61.

**Q.** What about the activity (fold activation) [31] of the same sequence?
**A.** Its activity (fold activation) is 2.95.

**Q.** And the activity (fold activation) [32]?
**A.** The activity (fold activation) was 2.71.

**Q.** What about the activity (fold activation) [33] of the same sequence?
**A.** The activity (fold activation) was 2.53.

**Q.** What about the activity (fold activation) [34] of the same sequence?
**A.** The activity (fold activation) was 3.87.

**Q.** What about the activity (fold activation) [35] of the same sequence?
**A.** Its activity (fold activation) is 3.55.
